Experimental findings from publication PMC4364296 (Molecular microbiology, 2014) are described below.

B1: FtsZ-WT (natural protein, E. coli, UniProt P0A9A6 1-383, looked up)
chain: MFEPMELTNDAVIKVIGVGGGGGNAVEHMVRERIEGVEFFAVNTDAQALRKTAVGQTIQIGSGITKGLGAGANPEVGRNAADEDRDALRAALEGADMVFIAAGMGGGTGTGAAPVVAEVAKDLGILTVAVVTKPFNFEGKKRMAFAEQGITELSKHVDSLITIPNDKLLKVLGRGISLLDAFGAANDVLKGAVQGIAELITRPGLMNVDFADVRTVMSEMGYAMMGSGVASGEDRAEEAAEMAISSPLLEDIDLSGARGVLVNITAGFDLRLDEFETVGNTIRAFASDNATVVIGTSLDPDMNDELRVTVVATGIGMDKRPEITLVTNKQVQQPVMDRYQQHGMAPLTQEQKPVAKVVNDNAPQTAKEPDYLDIPAFLRKQAD
B2: His-ZipA^185–328 (domain or fragment)
chain: not shown

Data set [1] deals with the molecule itself. Put plainly: sedimentation of polymers + electron microscopy.
The next data set concerns the target T1, FtsZ-L178E (E. coli, UniProt P0A9A6 1-383, L178E).
T1 sequence (looked up): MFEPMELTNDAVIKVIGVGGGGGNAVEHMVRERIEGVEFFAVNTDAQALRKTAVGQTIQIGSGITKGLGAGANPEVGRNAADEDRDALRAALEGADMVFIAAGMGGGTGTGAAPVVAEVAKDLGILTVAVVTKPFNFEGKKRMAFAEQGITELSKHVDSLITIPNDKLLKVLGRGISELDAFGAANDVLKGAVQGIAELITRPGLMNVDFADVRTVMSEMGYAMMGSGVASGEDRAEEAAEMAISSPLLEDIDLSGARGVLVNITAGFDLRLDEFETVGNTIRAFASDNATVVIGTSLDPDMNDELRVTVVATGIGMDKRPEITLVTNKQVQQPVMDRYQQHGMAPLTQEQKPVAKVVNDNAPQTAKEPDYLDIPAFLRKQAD
Put plainly: BLI. On the technique in general: BLI is a label-free optical method that tracks binding on a fibre tip over time.

In data set [2] the target is B1. Nature of the data set: BLI.
Data set [3] has as its target B1. Put plainly: BLI. This is another data set of the same source.
Data set [4] deals with B1. Nature of the data set: BLI. The source holds these as a separate data set.
In another data set the target is T2, His-FtsZ (E. coli, UniProt P0A9A6 1-383).
T2 sequence (looked up): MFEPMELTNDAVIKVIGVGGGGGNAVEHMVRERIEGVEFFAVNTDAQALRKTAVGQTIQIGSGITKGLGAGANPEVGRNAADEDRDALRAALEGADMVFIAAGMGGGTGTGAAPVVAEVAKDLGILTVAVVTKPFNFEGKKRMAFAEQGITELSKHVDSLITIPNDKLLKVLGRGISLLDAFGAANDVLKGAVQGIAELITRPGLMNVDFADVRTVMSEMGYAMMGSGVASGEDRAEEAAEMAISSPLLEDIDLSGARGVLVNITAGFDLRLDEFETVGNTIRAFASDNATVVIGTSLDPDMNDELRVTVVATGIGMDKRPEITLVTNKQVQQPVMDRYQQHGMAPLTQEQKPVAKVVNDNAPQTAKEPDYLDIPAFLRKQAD
Put plainly: BLI.

Data set [5] has as its target B2. Put plainly: BLI.
The target of data set [6] is B2. Nature of the data set: BLI. This is another data set of the same source.
In data set [7] the target is B2. Put plainly: BLI. This is another data set of the same source.

Like-named read-outs stand apart in the source and are kept apart here.

In the case of B1, the binding result in data set [1] is given as “binds”.

For orientation: Kd means the concentration at which binding is half-saturated. A lower Kd goes with higher affinity. Take B2: the Kd with FtsZ-L178E is 5.3 ± 0.7 µM; with FtsZ-WT [2] it was 0.42 ± 0.1 µM; with FtsZ-WT [3], 0.77 ± 0.1 µM.

B3: His-SlmA/SBS (natural protein, E. coli, UniProt P0C093 1-198, looked up)
chain: MAEKQTAKRNRREEILQSLALMLESSDGSQRITTAKLAASVGVSEAALYRHFPSKTRMFDSLIEFIEDSLITRINLILKDEKDTTARLRLIVLLLLGFGERNPGLTRILTGHALMFEQDRLQGRINQLFERIEAQLRQVLREKRMREGEGYTTDETLLASQILAFCEGMLSRFVRSEFKYRPTDDFDARWPLIAAQLQ
For B3, the binding result with FtsZ-WT [4] is “binds”.

B4: ZipA^185–328 (untagged) (domain or fragment)
chain: not shown
Turning to B4, the Kd with His-FtsZ was 8.1 ± 1.3 µM. As for DYLDIPAFLRKQAD (peptide, UniProt P0A9A6 370-383, looked up) [CCTP (14 amino acids)], in the data set with His-ZipA^185–328 [5], the Kd was found to be 140 ± 22 µM.

B5: FtsZ-360 (domain or fragment, E. coli, UniProt P0A9A6 1-360, looked up)
chain: MFEPMELTNDAVIKVIGVGGGGGNAVEHMVRERIEGVEFFAVNTDAQALRKTAVGQTIQIGSGITKGLGAGANPEVGRNAADEDRDALRAALEGADMVFIAAGMGGGTGTGAAPVVAEVAKDLGILTVAVVTKPFNFEGKKRMAFAEQGITELSKHVDSLITIPNDKLLKVLGRGISLLDAFGAANDVLKGAVQGIAELITRPGLMNVDFADVRTVMSEMGYAMMGSGVASGEDRAEEAAEMAISSPLLEDIDLSGARGVLVNITAGFDLRLDEFETVGNTIRAFASDNATVVIGTSLDPDMNDELRVTVVATGIGMDKRPEITLVTNKQVQQPVMDRYQQHGMAPLTQEQKPVAKVVND
Consider B5, for which, in data set [1], the binding result is “binds”. Molecule KEPDYLDIPAFLRKQAD (domain or fragment, E. coli, UniProt P0A9A6 367-383, looked up) [MalE-CCTP] showed a Kd in the data set with His-ZipA^185–328 [5] of 30.8 ± 4.7 µM.

B6: MinDΔ10-linker-CCTP (other, E. coli, UniProt P0AEZ3 1-260, looked up)
chain: MARIIVVTSGKGGVGKTTSSAAIATGLAQKGKKTVVIDFDIGLRNLDLIMGCERRVVYDFVNVIQGDATLNQALIKDKRTENLYILPASQTRDKDALTREGVAKVLDDLKAMDFEFIVCDSPAGIETGALMALYFADEAIITTNPEVSSVRDSDRILGILASKSRRAENGEEPIKEHLLLTRYNPGRVSRGDMLSMEDVLEILRIKLVGVIPEDQSVLRASNQGEPVILDINADAGKAYADTVERLLGEERPFRFIEEEKPEITLVTNKQVQQPVMDRYQQHGMAPLTQEQKPVAKVVNDNAPQTAKEPDYLDIPAFLRKQAD
As to B6, the Kd was determined as 1.4 ± 0.2 µM with His-ZipA^185–328 [6] and 11.7 ± 5.2 µM with His-ZipA^185–328 [7].
